B1: NP_015628.1 (parent)
chain: EQRNSRWNTVLRAVKAKTHHLEP

Variants of: B1
Assay: protein stability index of a GFP-peptide fusion (GPS, HEK-293T) (PSI 1-6); higher = more stable
Conditions: c terminus: native
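Note: lentivirally expressed fusion library, cells FACS-sorted into six equal-sized GFP/DsRed ratio bins, PSI computed from sequencing read fractions per bin weighted by bin number.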

Variant	protein stability index
EQRNSRWNTVLRLVKAKTHHLEP [A13L]	2.69
EQRNSRWNTVLRGVKAKTHHLEP [A13G]	2.89
EQRNSRWNTVLRKVKAKTHHLEP [A13K]	2.87
EQRNSRWNTVLRNVKAKTHHLEP [A13N]	3.06
EQRNSRWNTVLRFVKAKTHHLEP [A13F]	2.52
EQRNSRWNTVLRMVKAKTHHLEP [A13M]	3.28
EQRNSRWNTVLRWVKAKTHHLEP [A13W]	2.93
EQRNSRWNTVLRQVKAKTHHLEP [A13Q]	2.7
EQRNSRWNTVLRRVKAKTHHLEP [A13R]	2.57
EQRNSRWNTVLRCVKAKTHHLEP [A13C]	3.08
EQRNSRWNTVLRYVKAKTHHLEP [A13Y]	3.1
EQRNSRWNTVLRDVKAKTHHLEP [A13D]	2.78
EQRNSRWNTVLRSVKAKTHHLEP [A13S]	3
EQRNSRWNTVLRHVKAKTHHLEP [A13H]	2.94
EQRNSRWNTVLRTVKAKTHHLEP [A13T]	2.97
EQRNSRWNTVLRIVKAKTHHLEP [A13I]	2.66
EQRNSRWNTVLREVKAKTHHLEP [A13E]	2.24
EQRNSRWNTVLRACKAKTHHLEP [V14C]	2.73
EQRNSRWNTVLRAMKAKTHHLEP [V14M]	3.07
EQRNSRWNTVLRANKAKTHHLEP [V14N]	3.1
EQRNSRWNTVLRAGKAKTHHLEP [V14G]	3.31
EQRNSRWNTVLRAFKAKTHHLEP [V14F]	2.87
EQRNSRWNTVLRAKKAKTHHLEP [V14K]	3.44
EQRNSRWNTVLRAIKAKTHHLEP [V14I]	3.37
EQRNSRWNTVLRAEKAKTHHLEP [V14E]	2.45

Variant	protein stability index
EQRNSRWNTVLRADKAKTHHLEP [V14D]	2.89
EQRNSRWNTVLRAPKAKTHHLEP [V14P]	2.73
EQRNSRWNTVLRALKAKTHHLEP [V14L]	3.05
EQRNSRWNTVLRAQKAKTHHLEP [V14Q]	2.85
EQRNSRWNTVLRAHKAKTHHLEP [V14H]	3.06
EQRNSRWNTVLRAAKAKTHHLEP [V14A]	3.23
EQRNSRWNTVQRAVKAKTHHLEP [L11Q]	4.63
EQRNSRWNTVERAVKAKTHHLEP [L11E]	4.36
EQRNSRWNTVYRAVKAKTHHLEP [L11Y]	3.5
EQRNSRWNTVWRAVKAKTHHLEP [L11W]	3.69
EQRNSRWNTVHRAVKAKTHHLEP [L11H]	4.49
EQRNSRWNTVNRAVKAKTHHLEP [L11N]	4.51
EQRNSRWNTVDRAVKAKTHHLEP [L11D]	4.52
EQRNSRWNTVGRAVKAKTHHLEP [L11G]	4.32
EQRNSRWNTVCRAVKAKTHHLEP [L11C]	2.47
EQRNSRWNTVKRAVKAKTHHLEP [L11K]	4.86
EQRNSRWNTVFRAVKAKTHHLEP [L11F]	3.9
EQRNSRWNTVTRAVKAKTHHLEP [L11T]	3.12
EQRNSRWNTVRRAVKAKTHHLEP [L11R]	5.15
EQRNSRWNTVPRAVKAKTHHLEP [L11P]	5.12
EQRNSRWNTVVRAVKAKTHHLEP [L11V]	2.5
EQRNSRWNTVSRAVKAKTHHLEP [L11S]	4.1
EQRNSRWNTVARAVKAKTHHLEP [L11A]	3.95
EQRNSRWNTVIRAVKAKTHHLEP [L11I]	2.51
EQRNSRWNTVMRAVKAKTHHLEP [L11M]	3.19

Variant	protein stability index
EQRNSRWNTVLKAVKAKTHHLEP [R12K]	2.97
EQRNSRWNTVLGAVKAKTHHLEP [R12G]	2.78
EQRNSRWNTVLCAVKAKTHHLEP [R12C]	2.74
EQRNSRWNTVLVAVKAKTHHLEP [R12V]	2.47
EQRNSRWNTVLLAVKAKTHHLEP [R12L]	2.76
EQRNSRWNTVLPAVKAKTHHLEP [R12P]	3.05
EQRNSRWNTVLSAVKAKTHHLEP [R12S]	2.57
EQRNSRWNTVLHAVKAKTHHLEP [R12H]	2.98
EQRNSRWNTVLDAVKAKTHHLEP [R12D]	2.44
EQRNSRWNTVLEAVKAKTHHLEP [R12E]	2.79
EQRNSRWNTVLYAVKAKTHHLEP [R12Y]	2.5
EQRNSRWNTVLTAVKAKTHHLEP [R12T]	3.07
EQRNSRWNTVLFAVKAKTHHLEP [R12F]	2.41
EQRNSRWNTVLNAVKAKTHHLEP [R12N]	3.21
EQRNSRWNTVLIAVKAKTHHLEP [R12I]	2.46
EQRNSRWNTVLMAVKAKTHHLEP [R12M]	2.8
EQRNSRWNTVLWAVKAKTHHLEP [R12W]	2.67
EQRNSRWNTVLAAVKAKTHHLEP [R12A]	2.77
EQRNSRWNTVLQAVKAKTHHLEP [R12Q]	2.71
EQRNSRWNLVLRAVKAKTHHLEP [T9L]	2.91
EQRNSRWNPVLRAVKAKTHHLEP [T9P]	4.6
EQRNSRWNWVLRAVKAKTHHLEP [T9W]	2.3
EQRNSRWNYVLRAVKAKTHHLEP [T9Y]	2.23
EQRNSRWNMVLRAVKAKTHHLEP [T9M]	3.04
EQRNSRWNQVLRAVKAKTHHLEP [T9Q]	3

Variant	protein stability index
EQRNSRWNIVLRAVKAKTHHLEP [T9I]	3.02
EQRNSRWNNVLRAVKAKTHHLEP [T9N]	3.3
EQRNSRWNRVLRAVKAKTHHLEP [T9R]	4.1
EQRNSRWNVVLRAVKAKTHHLEP [T9V]	2.74
EQRNSRWNSVLRAVKAKTHHLEP [T9S]	3.31
EQRNSRWNTTLRAVKAKTHHLEP [V10T]	3.15
EQRNSRWNTHLRAVKAKTHHLEP [V10H]	2.81
EQRNSRWNTCLRAVKAKTHHLEP [V10C]	3.99
EQRNSRWNTYLRAVKAKTHHLEP [V10Y]	2.53
EQRNSRWNTILRAVKAKTHHLEP [V10I]	2.92
EQRNSRWNTALRAVKAKTHHLEP [V10A]	3.52
EQRNSRWNTWLRAVKAKTHHLEP [V10W]	2.78
EQRNSRWNTELRAVKAKTHHLEP [V10E]	3.92
EQRNSRWNTPLRAVKAKTHHLEP [V10P]	4.13
EQRNSRWNTQLRAVKAKTHHLEP [V10Q]	3.25
EQRNSRWNTDLRAVKAKTHHLEP [V10D]	4.65
EQRNSRWNTSLRAVKAKTHHLEP [V10S]	3.63
EQRNSRWNTFLRAVKAKTHHLEP [V10F]	2.74
EQRNSRWNTKLRAVKAKTHHLEP [V10K]	3.15
EQRNSRWNTNLRAVKAKTHHLEP [V10N]	3.76
EQRNSRWNTMLRAVKAKTHHLEP [V10M]	2.89
EQRNSRWNTRLRAVKAKTHHLEP [V10R]	2.77

Source: the supplement of paper PMC10567573
